Patent US20200148733A1 (Pieris, published 2020)
Where “and” joins values, the source holds several entries; their conditions need not be identical. Equal entries are not always repeated.

B1: human IL-23 (ligand)
chain 1: RAVPGGSSPAWTQCQQLSQKLCTLAWSAHPLVGHMDLREEGDEETTNDVPHIQCGDGCDPQGLRDNSQFCLQRIHQGLIFYEKLLGSDIFTGEPSLLPDSPVGQLHASLLGLSQLLQPEGHHWETQQIPSLSPSQPWQRLLLRFKILRSLQAFVAVAARVFAHGAATLSP
chain 2: IWELKKDVYVVELDWYPDAPGEMVVLTCDTPEEDGITWTLDQSSEVLGSGKTLTIQVKEFGDAGQYTCHKGGEVLSHSLLLLHKKEDGIWSTDILKDQKEPKNKTFLRCEAKNYSGRFTCWWLTTISTDLTFSVKSSRGSSDPQGVTCGAATLSAERVRGDNKEYEYSVECQEDSACPAAEESLPIEVMVDAVHKLKYENYTSSFFIRDIIKPDPPKNLQLKPLKNSRQVEVSWEYPDTWSTPHSYFSLTFCVQVQGKSKREKKDRVFTDKTSATVICRKNASISVRAQDRYYSSSWSEWASVPCS
notes: Heterodimer of p19 and p40; in the proliferation assays CAT # HZ-1254, HumanZyme; also called hIL-23; hIL23

Tests used:
[1] = target: T1, lipocalin mutein SEQ ID NO: 10; experiment: solution competition ELISA: 1 nM SEQ ID NO: 10 pre-incubated with varied ligand, free mutein captured on immobilised biotinylated hIL-23 (competitor)
T1 construct: Human NGAL (lipocalin 2) mutein specific for IL-23p19
T1 chain: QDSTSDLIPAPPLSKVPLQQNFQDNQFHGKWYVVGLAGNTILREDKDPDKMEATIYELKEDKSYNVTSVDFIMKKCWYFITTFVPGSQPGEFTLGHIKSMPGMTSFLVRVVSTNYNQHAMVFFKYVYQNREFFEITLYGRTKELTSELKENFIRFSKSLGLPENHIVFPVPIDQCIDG
Protocol: (§1) In the following detailed experimental protocol, incubation and washing steps were performed as described above in the competition ELISA protocol. A 384-well plate suitable for fluorescence measurements (Greiner FLUOTRAC™ 600, black flat bottom, high-binding) was coated with 20 μl of Neutravidin at a concentration of 5 μg/ml in PBS over night at 4° C. After washing, the Neutravidin-coated wells were blocked with 100 μl PBS-T/BSA for 1h at room temperature.

[2] = target: T2, lipocalin mutein SEQ ID NO: 9; experiment: solution competition ELISA: 10 nM SEQ ID NO: 9 pre-incubated with varied ligand, free mutein captured on immobilised biotinylated hIL-23 (competitor)
T2 construct: Human NGAL (lipocalin 2) mutein specific for IL-23p19
T2 chain: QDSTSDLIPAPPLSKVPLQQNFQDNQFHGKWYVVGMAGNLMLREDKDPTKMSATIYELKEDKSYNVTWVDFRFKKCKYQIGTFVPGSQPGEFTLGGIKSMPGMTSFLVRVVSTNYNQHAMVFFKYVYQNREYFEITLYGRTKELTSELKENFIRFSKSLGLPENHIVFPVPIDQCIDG
Protocol: as §1

[3] = target: T3, lipocalin mutein SEQ ID NO: 13; experiment: solution competition ELISA: 100 nM mutein (C-terminal Streptag) pre-incubated with varied ligand, free mutein captured on immobilised biotinylated hIL-23 (competitor)
T3 construct: Tear lipocalin mutein specific for IL-23p19
Protocol: as §1, with “blocking buffer (PBS-T/BSA)” for “PBS-T/BSA”
(§2) Note that the lipocalein muteins contained a C-terminal Streptag fusion to allow binding and subsequent detection with the aid of an anti-Streptag antibody.
(§3) The residual supernatants were discarded and 20 μl of HRP-conjugated anti-Streptag IgG antibody (Genscript) was added at a predetermined optimal concentration in PBS-T/BSA and incubated for 1 h at RT. After washing, 20 μl fluorogenic HRP substrate (Quantablue, Pierce) was added to each well, and the reaction allowed to proceed for 30 minutes.

[4] = target: T4, lipocalin mutein SEQ ID NO: 6; experiment: as above
T4 construct: Tear lipocalin mutein specific for IL-23p19
Protocol: as §1, with “blocking buffer (PBS-T/BSA)” for “PBS-T/BSA”
as §2, §3

[5] = target: T5, lipocalin mutein SEQ ID NO: 12; experiment: as above
T5 construct: Tear lipocalin mutein specific for IL-23p19
Protocol: as §1, with “blocking buffer (PBS-T/BSA)” for “PBS-T/BSA”
as §2, §3

[6] = target: B1; experiment: cell-based or functional assay
[7] = target: B1; experiment: competition ECL assay: biotinylated hIL-23 pre-incubated with varied binder, free hIL-23 captured on coated soluble hIL-23R (competitor); Example 28
[8] = target: B1; experiment: cell-based or functional assay; remark: listed apart in the source
[9] = target: B1; experiment: competition ELISA (ECL): 0.2 nM biotinylated hIL-23 pre-incubated with varied mutein, free hIL-23 captured on coated soluble hIL-23R (competitor)
[10] = target: B1; experiment: competition ELISA (ECL): 0.05 nM biotinylated hIL-23 pre-incubated with varied binder, free hIL-23 captured on coated soluble hIL-23R (competitor); average of two measurements
Protocol: (§4) The IgG antibody served as the positive control. […] The detailed experimental procedure was described as follows.
(§5) After washing, 60 μl MSD Read Buffer T (2×) was added to each well and the plate was read within 15 min.
(§6) The resulting Electrochemoluminescence (ECL) signal was measured with a suitable instrument such as the SECTOR Imager 2400 (Meso Scale Discovery).

[11] = target: B1; experiment: competition ELISA (ECL): 0.05 nM biotinylated hIL-23 pre-incubated with varied binder, free hIL-23 captured on coated soluble hIL-23R (competitor); single measurement
Protocol: as §4, §5, §6

[12] = target: T6, lipocalin mutein SEQ ID NO: 5; experiment: solution competition ELISA: 0.5 nM SEQ ID NO: 5 pre-incubated with varied ligand, free mutein captured on immobilised biotinylated hIL-17A (competitor)
T6 construct: Human tear lipocalin (Tlc) mutein specific for IL-17A; also called Tlc mutein
Protocol: as §1, with “blocking buffer (PBS-T/BSA)” for “PBS-T/BSA”

[13] = target: B1; experiment: competition ELISA (ECL), 0.2 nM biotinylated hIL-23, coated soluble hIL-23R
[14] = target: human IL-17A (human, UniProt Q16552 24-155); experiment: cell-based or functional assay

T6 sequence (chain, as listed by the source): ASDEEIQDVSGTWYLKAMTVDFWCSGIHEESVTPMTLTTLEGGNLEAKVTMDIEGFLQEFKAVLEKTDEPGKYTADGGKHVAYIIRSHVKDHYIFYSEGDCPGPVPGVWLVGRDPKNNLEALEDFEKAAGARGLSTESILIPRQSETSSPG
T3 sequence (chain, as listed by the source): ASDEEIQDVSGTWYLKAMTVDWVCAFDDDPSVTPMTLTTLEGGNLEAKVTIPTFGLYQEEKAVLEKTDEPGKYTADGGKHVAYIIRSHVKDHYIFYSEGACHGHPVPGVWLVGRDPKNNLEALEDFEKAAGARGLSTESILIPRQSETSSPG
T5 sequence (chain, as listed by the source): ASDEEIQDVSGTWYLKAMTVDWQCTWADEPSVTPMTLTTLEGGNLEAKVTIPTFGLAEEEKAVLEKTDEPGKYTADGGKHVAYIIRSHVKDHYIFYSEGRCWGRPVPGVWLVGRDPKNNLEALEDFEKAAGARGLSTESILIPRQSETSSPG
T4 sequence (chain, as listed by the source): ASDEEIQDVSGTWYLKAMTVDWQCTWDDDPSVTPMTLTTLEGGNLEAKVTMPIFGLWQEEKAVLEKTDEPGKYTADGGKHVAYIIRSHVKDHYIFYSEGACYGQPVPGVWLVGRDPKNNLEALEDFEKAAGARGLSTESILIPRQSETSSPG

**Q.** How did the IC50 [1] turn out when B1 was run?
**A.** 1.4 nM

**Q.** What about the IC50 [2] of the same binder?
**A.** 55 nM

**Q.** And the IC50 [3]?
**A.** 24 nM

**Q.** And the IC50 [4]?
**A.** 89 nM

**Q.** And the IC50 [5]?
**A.** 66 nM

B2: lipocalin mutein SEQ ID NO: 15 (designed binder)
chain: QDSTSDLIPAPPLSKVPLQQNFQDNQFHGKWYVVGEAGNLLLREDKDPRKMTATIYELKEDKSYNVTRVEFGVKTYKYQIGTFVPGSQPGEFTLGGIKSMPGMTSFLVRVVSTNYNQHAMVFFKYVYQNREYFEITLYGRTKELTSELKENFIRFSKSLGLPENHIVFPVPIDQAIDG
notes: IL-23p19-specific mutein
**Q.** Which “IC50, hIL-23-induced proliferation of Ba/F3 cells expressing hIL-23R and hIL-12Rβ1” value [6] does the source give for B2 here?
**A.** 3.8 nM

**Q.** And the IC50 [7]?
**A.** 0.27 nM

**Q.** What about the “EC50 [nM] AVERAGE, hIL-23-induced proliferation of Ba/F3 cells expressing hIL-23R and hIL-12Rβ1” value [8] of the same binder?
**A.** 0.6 nM

**Q.** What about the “EC50 [nM] Exp 1, hIL-23-induced proliferation of Ba/F3 cells expressing hIL-23R and hIL-12Rβ1” value [8] of the same binder?
**A.** 0.3 nM

**Q.** And the “EC50 [nM] Exp 2, hIL-23-induced proliferation of Ba/F3 cells expressing hIL-23R and hIL-12Rβ1” value [8]?
**A.** 0.4 nM

**Q.** And the “EC50 [nM] Exp 3, hIL-23-induced proliferation of Ba/F3 cells expressing hIL-23R and hIL-12Rβ1” value [8]?
**A.** 1 nM

**Q.** And the “EC50 [nM] Exp 4, hIL-23-induced proliferation of Ba/F3 cells expressing hIL-23R and hIL-12Rβ1” value [8]?
**A.** 0.7 nM

**Q.** What about the IC50 [9] of the same binder?
**A.** 0.3 nM

B3: IgG antibody (comprising the amino acids shown in SEQ ID NOs: 51 and 52) (antibody, V domains shown)
VH: QVQLVQSGAEVKKPGASVKVSCKASGYIFITYWMTWVRQAPGQGLEWMGQIFPASGSADYNEKFEGRVTMTTDTSTSTAYMELRSLRSDDTAVYYCARGGGGFAYWGQGTLVTVSS
VL: DIQMTQSPSSLSASVGDRVTITCRTSENIYSYLAWYQQKPGKAPKLLIYNAKTLAEGVPSRFSGSGSGTDFTLTISSLQPEDFATYYCQHHYGIPFTFGQGTKVEIKR
notes: also called positive control IgG
**Q.** For B3, which IC50 [10] is on record?
**A.** 0.26 nM

**Q.** What about the IC50 [11] of the same binder?
**A.** 0.22 nM and 0.29 nM

B4: mouse IL-23 (ligand)
chain 1: VPRSSSPDWAQCQQLSRNLCMLAWNAHAPAGHMNLLREEEDEETKNNVPRIQCEDGCDPQGLKDNSQFCLQRIRQGLAFYKHLLDSDIFKGEPALLPDSPMEQLHTSLLGLSQLLQPEDHPRETQQMPSLSSSQQWQRPLLRSKILRSLQAFLAIAARVFAHGAATLTEPLVPTA
chain 2: MWELEKDVYVVEVDWTPDAPGETVNLTCDTPEEDDITWTSDQRHGVIGSGKTLTITVKEFLDAGQYTCHKGGETLSHSHLLLHKKENGIWSTEILKNFKNKTFLKCEAPNYSGRFTCSWLVQRNMDLKFNIKSSSSSPDSRAVTCGMASLSAEKVTLDQRDYEKYSVSCQEDVTCPTAEETLPIELALEARQQNKYENYSTSFFIRDIIKPDPPKNLQMKPLKNSQVEVSWEYPDSWSTPHSYFSLKFFVRIQRKKEKMKETEEGCNQKGAFLVEKTSTEVQCKGGNVCVQAQDRYYNSSCSKWACVPCRVRS
notes: also called mIL-23
**Q.** How did the IC50 [1] turn out when B4 was run?
**A.** 361 nM

**Q.** What about the IC50 [2] of the same binder?
**A.** 88 nM

B5: cynomolgus monkey IL-17A (ligand)
chain: GIAIPRNSGCPNSEDKNFPRTVMVNLNIHNRNTSTNPKRSSDYYNRSTSPWNLHRNEDPERYPSVIWEAKCRHLGCVKADGNVDYHMNSVPIQQEILVLRREPRHCPNSFRLEKILVSVGCTCVTPIVHHVA
notes: also called cIL-17A; cIL-17-A
**Q.** How did the IC50 [12] turn out when B5 was run?
**A.** 0.3 nM

B6: negative control SEQ ID NO: 11 (designed binder)
chain: QDSTSDLIPAPPLSKVPLQQNFQDNEFHGKWYVVGLAGNAILREDKDPQKMYATIYELKEDKSYNVTSVLFRKKKCDYWIRTFVPGSQPGEFTLGNIKSYPGLTSYLVRVVSTNYNQHAMVFFKKVSQNREYFKITLYGRTKELTSELKENFIRFSKSLGLPENHIVFPVPIDQCIDG
**Q.** Does B6 bind [13]?
**A.** no binding (tested: starting concentration 500 nM)

B7: benchmark antibody 2 (antibody, human IgG4, kappa, V domains shown)
VH: QVQLVQSGAEVKKPGSSVKVSCKASGYSFTDYHISWVRQAPGQGLEWMGVINPEYGTTDYNQRFKGRVTITADESTSTAYMELSSLRSEDTAVYYCARYDYFTGTGAYWGQGTLVTVSS
VL: DIVMTQTPLSLSVTPGQPASISCRSSQSLKHSRGNTFLHWYLQKPGQSPQLLIYKVSNRFIGVPDRFSGSGSGTDFTLKISRVEAEDVGVYYCSQSTHYPFTFGQGTKLEIKR
**Q.** With B7 as the binder, how does the “IC50, hIL-17A-induced secretion of G-CSF in U87-MG cells” value [14] read?
**A.** 0.6 nM

B8: ABD fusion (SEQ ID NO: 42) (designed binder)
chain: QDSTSDLIPAPPLSKVPLQQNFQDNQFHGKWYVVGEAGNLLLREDKDPRKMTATIYELKEDKSYNVTRVEFGVKTYKYQIGTFVPGSQPGEFTLGGIKSMPGMTSFLVRVVSTNYNQHAMVFFKYVYQNREYFEITLYGRTKELTSELKENFIRFSKSLGLPENHIVFPVPIDQAIDGSAGAVDANSLAEAKVLANRELDKYGVSDYYKNLINNAKTVEGVKALIDEILAALP
**Q.** What does the source list for B8?
**A.** IC50 (experiment of FIG. 19), hIL-23-induced proliferation of Ba/F3 cells expressing hIL-23R and hIL-12Rβ1 [6]: 0.22 nM; IC50 (three independent experiments), hIL-23-induced proliferation of Ba/F3 cells expressing hIL-23R and hIL-12Rβ1 [6]: 0.41 nM
